Drawing on patent US20030175819A1 (BURNHAM INSTITUTE, published 2003), this text covers binding result and Kd for 4 molecules.

The target in experiment [1] is T1, GFP-HN (Green Fluorescent Protein fused to wild-type, full-length Humanin, cytosolic / nuclear-encoded form) (human, UniProt P42212 1-238 = GFP).
T1 construct: Humanin cDNA in the XhoI/HindIII sites of GFP-C1 (pEGFP-C1), so GFP is N-terminal; also called GFP-HN(N); GFP-Humanin
The experiment can be described thus: co-immunoprecipitation from HEK293T cells (anti-GFP IP, anti-myc blot).

In experiment [2] the target is Recombinant Bcl-XL protein (UniProt Q07817 1-211). In words: fluorescence polarization assay.
Method: (§1) In this example, the in vitro binding assay is a fluorescence polarization assay (FPA). For this experiment, full-length Bax protein was produced in bacteria and purified. […] The extent of peptide binding was then monitored by measuring polarization of monochromatic light passed through the sample, where peptide binding to the bulkier protein slows the rate of peptide tumbling in solution, enhancing the polarization effect.
(§2) Fluorescence Polarization Assays were performed as follows. […] Fluorescence polarization was measured using an AnalystTM AD Assay Detection System (LJL Biosystem, Sunnyvale, Calif.).
The target of experiment [3] is T2, purified recombinant full-length Bax protein (from E. coli BL21 harboring pTYB1-Bax) (human, UniProt Q07812 1-192).
T2 construct: also called recombinant Bax
In words: fluorescence polarization assay, various concentrations of purified recombinant Bax with 40 nM rhodamine-conjugated Humanin peptide.
Method: as §1, §2

*: point of attachment. RhodamineB = CCN(CC)c1ccc2c(-c3ccccc3C(=O)*)c3ccc(=[N+](CC)CC)cc-3oc2c1; Ahx = NCCCCCC(=O)O

Recombinant Bcl-XL protein, sequence (Q07817 1-211): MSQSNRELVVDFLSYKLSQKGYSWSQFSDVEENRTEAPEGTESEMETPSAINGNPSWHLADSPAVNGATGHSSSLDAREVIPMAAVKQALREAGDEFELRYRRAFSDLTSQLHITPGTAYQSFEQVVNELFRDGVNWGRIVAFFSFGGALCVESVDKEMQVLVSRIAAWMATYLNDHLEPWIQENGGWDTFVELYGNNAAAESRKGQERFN
T2 sequence (Q07812 whole entry): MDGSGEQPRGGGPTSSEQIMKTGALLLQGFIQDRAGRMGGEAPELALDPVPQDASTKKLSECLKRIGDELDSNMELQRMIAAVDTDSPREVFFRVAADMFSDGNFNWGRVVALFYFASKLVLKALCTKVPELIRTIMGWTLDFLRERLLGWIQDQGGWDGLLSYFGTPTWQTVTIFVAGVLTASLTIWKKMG

B1: myc-tagged Bcl-B (from pcDNA3-myc) (other, UniProt Q9HD36 1-204, looked up, not shown: small tags and cut ends)
chain: MVDQLRERTTMADPLRERTELLLADYLGYCAREPGTPEPAPSTPEAAVLRSAAARLRQIHRSFFSAYLGYPGNRFELVALMADSVLSDSPGPTWGRVVTLVTFAGTLLERGPLVTARWKKWGFQPRLKEQEGDVARDCQRLVALLSSRLMGQHRAWLQAQGGWDGFCHFFRTPFPLAFWRKQLVQAFLSCLLTTAFIYLWTRLL
In the case of B1, the binding result in experiment [1] is recorded as “no binding”.

B2: myc-tagged Bak (from pcDNA3-myc) (other, UniProt Q16611 1-211, looked up, not shown: small tags and cut ends)
chain: MASGQGPGPPRQECGEPALPSASEEQVAQDTEEVFRSYVFYRHQQEQEAEGVAAPADPEMVTLPLQPSSTMGQVGRQLAIIGDDINRRYDSEFQTMLQHLQPTAENAYEYFTKIATSLFESGINWGRVVALLGFGYRLALHVYQHGLTGFLGQVTRFVVDFMLHHCIARWIAQRGGWVAALNLGNGPILNVLVVLGVVLLGQFVVRRFFKS
Turning to B2, in experiment [1], the binding result is “no binding”.

B3: myc-tagged Bok (from pcDNA3-myc) (other, UniProt Q9UMX3 1-212, looked up, not shown: small tags and cut ends)
chain: MEVLRRSSVFAAEIMDAFDRSPTDKELVAQAKALGREYVHARLLRAGLSWSAPERAAPVPGRLAEVCAVLLRLGDELEMIRPSVYRNVARQLHISLQSEPVVTDAFLAVAGHIFSAGITWGKVVSLYAVAAGLAVDCVRQAQPAMVHALVDCLGEFVRKTLATWLRRRGGWTDVLKCVVSTDPGLRSHWLVAALCSFGRFLKAAFFVLLPER
As for B3, in experiment [1], the binding result was “no binding”.

B4: rhodamine-conjugated synthetic purified Humanin peptide (peptide)
peptide: {RhodamineB-Ahx}-MAPRGFSCLLLLTSEIDLPVKRRA-NH2
notes: also called rhodamine-HN; rhodamine-conjugated HN peptide
For the molecule B4, in experiment [2], the binding result is “no binding”. The Kd in experiment [3] was around 2 nM.
